Literature values in patent publication US20220133873A1, “CANCER THERAPY” (Madison Vaccines Inc., priority 2019, published 2022).

What was measured:
[1] = test system: advanced (metastatic) melanoma; details: 173 patients, 2 mg/kg or 10 mg/kg at 3-week intervals
[2] = intravenously or subcutaneously, doses 50 to 500 μg/m2/day

| Substance | drug-related grade 3 or 4 adverse event reported in more than one patient [1] | overall response rate ([1]; irrespective of dose) [%] | tolerability [2] |
| --- | --- | --- | --- |
| pembrolizumab | Grade 3 fatigue | 26 | – |
| GM-CSF: Granulocyte-macrophage colony-stimulating factor, vaccine adjuvant | – | – | generally well tolerated |
